{
  "source": "patent US20240240147A1",
  "molecular_target": "human B cell antigen CD19 on human B-ALL cells (human) (UniProt P15391)",
  "assay": "cell-based or functional assay",
  "data": [
    {"substance": "CarP-RFP (control CarP: extracellular αCD19 scFv, CD8 transmembrane domain, RFP, no cytoplasmic signaling domain) (from UniProt P01732 138-206)", "values": [
      {"measurement": "percent of CarP-RFP macrophages (from GMPs expanded in modified SCF/2i) that engulfed GFP-labeled human B-ALL cells within 1 hour of co-culture; control CAR without signaling domain", "value": 0.87, "unit": "%"},
      {"measurement": "percent of macrophages (from mouse SCF/2i GMPs) that phagocytized GFP-labeled human B-ALL cells within 1 hour of co-culture; control CAR without signaling domain", "value": 0.21, "unit": "%"}
    ]},
    {"substance": "CarP^Fc19-RFP (αCD19 scFv, human CD8 hinge/transmembrane, mouse Fcer1g aa19-86, mouse CD19 aa491-535, P2A-RFP) (from UniProt P01732 138-206; P20491 19-86; P25918 491-535)", "values": [
      {"measurement": "percent of macrophages (from mouse SCF/2i GMPs) that engulfed GFP-positive human B-ALL cells within 1 hour of co-culture", "value": 5.23, "unit": "%"}
    ]},
    {"substance": "αCD19 CarP^zFc19-RFP (αCD19 scFv, human CD8 hinge/transmembrane, mouse CD3ζ aa52-164, mouse Fcer1g aa45-86, mouse CD19, P2A-RFP) (from UniProt P01732 138-206; P24161 52-164; P20491 45-86; P25918 491-535)", "values": [
      {"measurement": "percent of macrophages (from mouse SCF/2i GMPs) that engulfed human B-ALL leukemia cells within 1 hour of co-culture, by flow cytometry", "value": 41.6, "unit": "%"}
    ]},
    {"substance": "human CarPzFc19-RFP (αCD19 scFv, human CD8 hinge/transmembrane, human CD3ζ aa52-164, human Fcer1g aa45-86, human CD19 aa498-544) (from UniProt P01732 138-206; P20963 52-164; P30273 45-86; P15391 498-544)", "values": [
      {"measurement": "percent of macrophages (from GMPs expanded in modified SCF/2i) that engulfed GFP-labeled human B-ALL leukemia cells within 1 hour of co-culture, by flow cytometry", "value": 28.6, "unit": "%"}
    ]}
  ]
}
